From patent US20210395392A1 (Bristol-Myers Squibb, published 2021)

T1: Human MerTK on hMerTK-expressing cells (human, UniProt Q12866 21-999)
T1 sequence: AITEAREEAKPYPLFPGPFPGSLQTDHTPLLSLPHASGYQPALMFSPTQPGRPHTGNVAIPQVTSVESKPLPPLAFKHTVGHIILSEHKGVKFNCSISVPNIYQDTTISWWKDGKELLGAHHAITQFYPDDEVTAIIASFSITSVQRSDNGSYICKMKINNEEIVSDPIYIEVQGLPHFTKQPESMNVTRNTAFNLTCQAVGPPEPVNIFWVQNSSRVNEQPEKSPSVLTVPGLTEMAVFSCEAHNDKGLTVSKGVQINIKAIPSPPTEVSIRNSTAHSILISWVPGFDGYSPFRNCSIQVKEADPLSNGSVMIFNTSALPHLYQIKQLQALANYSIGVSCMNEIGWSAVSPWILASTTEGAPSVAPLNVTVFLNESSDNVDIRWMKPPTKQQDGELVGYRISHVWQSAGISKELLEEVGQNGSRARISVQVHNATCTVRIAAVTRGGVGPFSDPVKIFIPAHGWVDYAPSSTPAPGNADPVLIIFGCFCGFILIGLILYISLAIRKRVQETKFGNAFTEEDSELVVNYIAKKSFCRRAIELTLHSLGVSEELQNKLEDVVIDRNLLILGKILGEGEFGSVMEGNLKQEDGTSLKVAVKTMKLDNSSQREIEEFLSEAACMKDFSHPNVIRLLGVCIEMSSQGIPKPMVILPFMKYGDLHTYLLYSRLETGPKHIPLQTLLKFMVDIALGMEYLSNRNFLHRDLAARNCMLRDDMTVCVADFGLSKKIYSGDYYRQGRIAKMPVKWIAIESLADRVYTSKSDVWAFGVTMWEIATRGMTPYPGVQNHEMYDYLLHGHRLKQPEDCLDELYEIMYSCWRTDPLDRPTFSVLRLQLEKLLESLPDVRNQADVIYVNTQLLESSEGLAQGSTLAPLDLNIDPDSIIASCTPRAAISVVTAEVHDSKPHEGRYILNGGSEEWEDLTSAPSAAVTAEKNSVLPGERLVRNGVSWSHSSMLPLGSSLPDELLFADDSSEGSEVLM

T2: Recombinant soluble extracellular domain of human MerTK (human, UniProt Q12866 21-505)
T2 construct: SPR analyte; also called hMerTK
T2 sequence: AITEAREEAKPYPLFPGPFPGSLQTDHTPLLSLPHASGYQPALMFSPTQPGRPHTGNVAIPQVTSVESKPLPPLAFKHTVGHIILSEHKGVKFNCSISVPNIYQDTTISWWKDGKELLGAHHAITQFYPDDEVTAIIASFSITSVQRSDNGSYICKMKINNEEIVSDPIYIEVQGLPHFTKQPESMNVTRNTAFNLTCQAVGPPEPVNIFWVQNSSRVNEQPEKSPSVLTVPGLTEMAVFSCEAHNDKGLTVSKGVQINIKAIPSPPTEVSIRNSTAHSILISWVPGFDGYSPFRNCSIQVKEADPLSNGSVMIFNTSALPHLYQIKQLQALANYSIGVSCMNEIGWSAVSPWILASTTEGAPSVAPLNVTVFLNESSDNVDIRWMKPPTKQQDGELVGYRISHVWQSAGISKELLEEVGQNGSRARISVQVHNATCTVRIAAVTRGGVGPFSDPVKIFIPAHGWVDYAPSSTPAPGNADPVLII

T3: Mouse MerTK on mMerTK-expressing cells (mouse, UniProt Q60805 19-994)
T3 construct: Receptor construct of the signaling assay is not described
T3 sequence: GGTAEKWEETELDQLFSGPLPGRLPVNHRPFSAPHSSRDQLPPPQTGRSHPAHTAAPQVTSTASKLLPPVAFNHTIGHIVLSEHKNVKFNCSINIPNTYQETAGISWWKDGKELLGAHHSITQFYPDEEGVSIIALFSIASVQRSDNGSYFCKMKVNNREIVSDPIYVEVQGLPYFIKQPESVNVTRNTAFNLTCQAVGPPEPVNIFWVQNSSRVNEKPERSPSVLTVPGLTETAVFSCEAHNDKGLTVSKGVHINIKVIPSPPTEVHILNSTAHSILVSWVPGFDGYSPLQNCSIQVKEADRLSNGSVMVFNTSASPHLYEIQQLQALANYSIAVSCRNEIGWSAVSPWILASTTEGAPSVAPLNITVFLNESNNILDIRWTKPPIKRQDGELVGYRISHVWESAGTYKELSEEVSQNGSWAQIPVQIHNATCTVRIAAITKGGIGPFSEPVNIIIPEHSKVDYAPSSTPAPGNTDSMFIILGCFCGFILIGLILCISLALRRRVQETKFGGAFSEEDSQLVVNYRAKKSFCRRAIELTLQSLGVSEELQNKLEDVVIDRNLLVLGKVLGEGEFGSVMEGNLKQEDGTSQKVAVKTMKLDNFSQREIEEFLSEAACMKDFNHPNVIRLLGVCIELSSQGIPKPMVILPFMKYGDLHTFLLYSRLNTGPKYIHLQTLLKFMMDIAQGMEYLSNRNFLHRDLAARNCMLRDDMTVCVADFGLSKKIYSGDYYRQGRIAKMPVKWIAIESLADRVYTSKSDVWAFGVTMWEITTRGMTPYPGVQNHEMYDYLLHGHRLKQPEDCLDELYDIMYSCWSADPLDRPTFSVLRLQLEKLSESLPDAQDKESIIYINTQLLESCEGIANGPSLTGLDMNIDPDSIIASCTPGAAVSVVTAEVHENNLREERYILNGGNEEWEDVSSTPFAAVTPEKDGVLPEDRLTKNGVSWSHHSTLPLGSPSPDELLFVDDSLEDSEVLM


Legend:
[1] = target: T1, Human MerTK on hMerTK-expressing cells; assay: cell-based or functional assay
[2] = target: T2, Recombinant soluble extracellular …; assay: SPR, mAb captured, soluble MerTK ECD as analyte, 37 C
Experimental: MerTK Abs were captured on the chip. Recombinant soluble forms of the extracellular domains of human, cynomolgus monkey, and mouse MerTK polypeptide were injected as analytes at multiple concentrations each. The resulting sensorgrams were double-referenced and fitted to a 1:1 Langmuir binding model with mass transport.

[3] = target: T3, Mouse MerTK on mMerTK-expressing cells; assay: binding to mMerTK-expressing cells; SPR not run

| Inhibition of Efferocytosis IC50 [1] [nM] | Signaling Assay, hMerTK with Gas6, pSTAT1 IC50 (nM) [1] [nM] | Signaling Assay, hMerTK without Gas6, pSTAT1 IC50 (nM) [1] [nM] | Kd [2] [nM] | koff [2] [s⁻¹] | kon [2] [M⁻¹ s⁻¹] | t1/2 [2] [min] | binding result [3] | Binder |
| --- | --- | --- | --- | --- | --- | --- | --- | --- |
| 0.051 | 0.093 | > 100 | 2.3 | 0.000975 | 421000 | 11.9 | no binding | HuMAb 25J60 (antibody, human IgG1, kappa, V domains shown, Human anti-hMerTK mAb, Bin 2, derived from HuMAb 25B10 by optimization) VH: QVQLVQSGAEVKKPGASVKVSCKTSGNTQIRYYMYWVRQAPGQGLEWMGILNPNQDQTTYAQKFQGRVTMTRDTSTSTVYMELSSLRSEDTAVYYCATTYRYYMDVWGQGTTVTVSS VL: not shown |
| 0.093 | 0.227 | > 100 | 4.1 | 0.00123 | 297000 | 9.6 | no binding | HuMAb 25J80 (antibody, human IgG1, kappa, V domains shown, Human anti-hMerTK mAb, Bin 2, derived from HuMAb 25B10 by optimization) VH: QVQLVQSGAEVKKPGASVKVSCKTSGRTFIRYYMHWVRQAPGQGLEWMGIIWPNGDQTTYAQKFQGRVTMTRDTSTSTVYMELSSLRSEDTAVYYCATTYKYAMDVWGQGTTVTVSS VL: EIVLTQSPGTLSLSPGERATLSCRASQSVRSNYLAWYQQKPGQAPRLLIYGASSRATGIPDRFSGSGSGTDFTLTISRLEPEDFAVYYCQQYESPPRTFGQGTKVEIKR |
| > 10 | 5.42 | – | 27.8 | 0.00336 | 121000 | 3.4 | no binding | HuMAb 4K10 (antibody, human IgG1, kappa, V domains shown, Human anti-hMerTK mAb, Bin 3) VH: QVQLQQWGAGLLKPSETLSLTCAVYGGSFSGYYWSWLRQPPGKGLEWIGEISHSGSTNYNPSLKSRVTISVDTSKNQFSLKLSSVTAADTAVYYCARALSRYWYFDLWGRGTLVTVSS VL: EIVLTQSPATLSLSPGERATLSCRASQSASNYLAWYQQKPGQAPRLLIYDASNRATGIPARFSGSGSGTDFTLTISSLEPEDFAVYYCYQRSQWPISFGQGTRLEIKR |
| 0.072 | 0.33 | > 100 | 34.4 | 0.00844 | 250000 | 1.4 | no binding | HuMAb 1B4 (antibody, human IgG1, kappa, V domains shown, Human anti-hMerTK mAb, Bin 1) VH: QLQLQESGPGLVKPSETLSLTCAVSGYSISSGNYWGWIRQSPGKGLEWIGSVDHSGSTYYSPSLKSRVTISVDTSKNQFSLKLNSVTAADTADYYCARNTMIRGVMDWFDPWGQGTLVTVSS VL: AIQLTQSPSSLSASVGDRVTITCRASQGISSALAWYQQKPGKAPKVLIYDASSLESGVPSRFSGSGSGTDFTLTISSLQPEDFATYYCQQFRSYPTFGQGTKVEIKR |
| 0.352 | 3.41 | > 100 | 10.6 | 0.000775 | 73500 | 14.9 | no binding | HuMAb 22I16 (antibody, human IgG1, kappa, V domains shown, Human anti-hMerTK mAb, Bin 1; also called 22116) VH: EVQLVESGGGLVQPGGSLRLSCAASGFTFSSYSMNWVRQAPGKGLEWVSYIISGSDTIFYADSVKGRFTISRDNAKNSLYLQMNSLRDEDTAVYYCARDETVVRGVINYFDYWGQGTLVTVSS VL: AIQLTQSPSSLSASVGDRVTITCRSSQGISSALAWYQQKPGKAPKLLIYDASSLESGVPSRFSGSGSGTDFTLTISSLQPEDFATYYCQQFISYPTFGQGTRLEIKR |
| 0.047 | 0.572 | > 100 | 5.7 | 0.00168 | 299000 | 6.9 | no binding | HuMAb 8N42 (antibody, V domains shown, Human anti-hMerTK mAb, Bin 1) VH: QVQLQQWGAGLLKPSETLSLTCAVYGGSFSIYYWSWIRQPPGKGLELIGEINDEGNTNYNPSLKSRVTISVDTSKNQFSLKLSSVTAADTAVYYCARGGTGDIHAFDIWGQGTMVTVSS VL: DIQMTQSPSSLSASVGDRVTITCRASQGISKWLAWYQQKPEKAPKSLIYAASSLQSGVPSRFSGSGSGTDFTLTISSLQPEDFATYYCQQYNSYPWTFGQGTKVEIKR |
